Measurements published in the supplement of paper PMC12042874.
± gives the uncertainty stated by the source.

Test: amyloid nucleation score (Sup35N fusion, yeast selection) (log enrichment); library NNK1; higher = more nucleation; inactive = no reads after selection
Outline: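 Growth for 7 days at 30°C on medium lacking adenine and uracil followed a 24-hour induction with 100 μM copper sulfate of psi-negative yeast expressing peptides of 20 random codons fused to Sup35N. Input and output plasmid inserts were sequenced with Illumina, and sequences with under 100 input reads were excluded. Nucleation score is the DiMSum log enrichment of output over input reads, centred on the mode score of non-aggregating sequences.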

Substance	amyloid nucleation score
DSCEW	-0.062 ± 0.58
DSGLFSKVVMHDNPSSVDKL	-0.123 ± 0.64
DSGWRWCNRSTSVGNVNVMR	0.171 ± 0.43
DSKLLSPDFRGRLIYRIFDD	-0.101 ± 0.46
DSLLEIGRSGVNELVGGLAD	-0.422 ± 1.2
DSNFVTGWMTSIMLRVGVLR	0.514 ± 1.2
DSPNVVQLLKYTLRYEARLG	0.877 ± 0.16
DSRCGPM	inactive
DSTSDMLHLIIRTMISLISR	-0.257 ± 0.35
DTGLRLD	0.536 ± 0.54
DTLIAWTGLVMFTSVERGCS	-0.299 ± 0.37
DTNQGYGVSGQIVKGRICFN	-0.681 ± 0.47
DTNTSIMHTIPRVGLNGCRR	10.02 ± 0.051
DTPNISAFYLWNLRKRLMIF	-0.023 ± 0.31
DTQESSNIVRSLPRLVGLLG	0.248 ± 0.43
DTYKSPKHYRRL	0.608 ± 0.64
DVDTRRT	inactive
DVFADGKVIQAYLM	-0.117 ± 0.39
DVFGLLSIYYR	1.1 ± 0.57
DVQQPPMDSISH	1.17 ± 0.57
DWFLTLAKVYSLNGQVFRMR	inactive
DWGRLVYRFNCKDRNRDGAR	0.177 ± 0.41
DWMLISE	-0.084 ± 0.28
DWSIDILYSVIRSPVNLINS	-1.01 ± 0.52
DWSRQFYMFVNVKARLFRGT	-0.05 ± 0.69

Substance	amyloid nucleation score
DYAFKFCFQLVDKAYRSLSY	-0.413 ± 0.27
DYDTMSNFSDSALCTPIRCD	0.485 ± 0.35
DYFSRKPGNCFWFAIARDNT	-0.398 ± 1.2
DYNIVYYNLYNTYINNYQSF	7.72 ± 0.048
DYRGTPNSWMIFMTPRGSLI	-0.004 ± 1.1
DYRGYFKSDIYSNFLTFLPG	-0.663 ± 0.22
DYYLATCYLPYALNCLAFLN	-1.18 ± 0.97
EAARMWSFNGNLSVFWIT	5.72 ± 0.097
EANMIYFLNGANLHRFFKHF	1.59 ± 0.35
EAPGTKFCC	2.94 ± 0.1
EAPYISFVLIG	inactive
ECCQDVIFFVAQINTCIEVT	0.221 ± 0.37
ECRVCL	-0.807 ± 2.4
ECVNLLR	0.471 ± 0.25
EDGPWACTCYYCGQGRRTWV	0.16 ± 0.9
EDGSQ	0.532 ± 0.42
EDSLPLDMEVNLGRIVEPKM	1.14 ± 0.59
EEQVDLIWLMYGAYHVCVMW	0.416 ± 0.43
EERDFKEPSRLVIIKLTVMF	3.18 ± 0.12
EERVFVYRLWYQSLVRHYEL	-0.204 ± 0.41
EESSPEAWSVRERTAGVFVF	-0.09 ± 0.86
EFGASRNAYTMRRILENGSA	-0.123 ± 0.38
EFLMIQIVMGAPGCHKGTRR	0.322 ± 0.47
EFLRNGLIILIVSLSAGELS	0.137 ± 0.23
EFQMLEFYRANLPSKSQNTL	-0.777 ± 0.43

Substance	amyloid nucleation score
EFSSKMSRMM	0.268 ± 1.2
EGGRFKHRMNSCHYNSFGLH	-0.255 ± 0.76
EGMAARSWDCMYVWG	0.35 ± 0.42
EGRYTRDFKCRFSSERHSPS	0.014 ± 0.47
EGSIMRGWLFICYNLF	-0.244 ± 0.93
EHKWAANLDDMVHLDRHNMQ	0.435 ± 0.72
EILIYNNYETFLVSFFEYGG	4.21 ± 0.083
EIVSIS	-0.42 ± 1.2
EKLTKTYGTRFNKVKLFL	0.294 ± 0.41
EKQCVVDFL	-1.26 ± 1.7
EKRFFVSLVNVYLDL	4.57 ± 0.071
EKWKKAAIWFFLSYWLAVWR	-0.301 ± 1.2
ELFSAIPATIHCI	-0.057 ± 1.1
ELGGVWN	0.701 ± 0.58
ELLQD	0.038 ± 0.59
ELSNRVRTEFVCIRTLVEDN	inactive
ELTLGLCSYSVRRSCGEGSW	6.62 ± 0.082
ELTYFGNI	1.5 ± 0.24
EMALKVVMWC	inactive
EMIMVGSMYSRGNSTCFPRA	0.777 ± 0.17
EMRLCRPCREYLLKSPT	0.31 ± 0.37
EMTPLLCATVRKPWKRVMIN	-0.311 ± 0.73
ENHSECNWRKCQQTLISHEC	0.487 ± 0.71
ENLVFTY	0.01 ± 0.28
ENNTGSVETLYRCSEKLVLE	0.228 ± 0.27

Substance	amyloid nucleation score
ENTVDPLRLDWCSGTSVWYK	0.54 ± 0.88
ENVAITMVLPSAKMGSYMDG	0.453 ± 1.2
ENVYGWVG	1.09 ± 0.15
EPIVLTVCCFSPKDVSQDLN	0.749 ± 0.56
EPVYISDWWTACEVADHVSL	inactive
EQFNT	0.323 ± 0.56
EQVSKMGNTCMSVDRVRWQN	-0.411 ± 0.87
ERKRTFY	0.536 ± 0.41
ERRQSEKPGLLPSWS	0.46 ± 1.2
ERVGAGVGSNERRD	0.646 ± 0.89
ERYRFRGIKLHRGDSWRDIC	1.14 ± 0.71
ESCVRYRSACSMFV	0.902 ± 0.47
ESFLASMLRIGMCLPKQVMW	-0.096 ± 0.66
ESHMRNHR	0.312 ± 0.37
ESHRRR	0.569 ± 0.62
ESMDGFARR	0.654 ± 0.67
ESRKYWVNMVIGQDDRLVHP	inactive
ESSGTFFP	-0.186 ± 0.9
ESSNSLL	-0.244 ± 0.4
ETFNWLSCIVRRSQKYAEET	-0.242 ± 1.2
ETFPYMRMYARALSRT	0.369 ± 0.39
ETRANGVESFSTDLYMHFLD	1.16 ± 0.36
EVATGSGERIQLCQVQSVNT	1.6 ± 0.55
EVENRFVCGNSDLSGNDANK	-0.489 ± 0.75
EVPMVFRGNEGVSRDCSLVG	-0.469 ± 0.42

Substance	amyloid nucleation score
EVVFNYTKHQVTIAV	inactive
EYLSDDGI	0.131 ± 0.28
EYNQG	-0.76 ± 1.2
FACSFQSNLLDKKYTSLVNL	0.051 ± 0.55
FAEFKDICMRE	0.978 ± 0.74
FAGSSGRCTPGSGFQGSIVT	-0.167 ± 0.33
FAKVESLLWAGICTGRDEVM	-0.318 ± 0.46
FAMTNFRYDLPQTHPLPRAV	-0.679 ± 0.54
FASLFYKLQASLFTLDNIMH	-0.006 ± 0.88
FCDILQVLVCYGLLKRVLKV	-0.296 ± 0.3
FCKCNQVFISCLCGSTKHTG	3.59 ± 0.1
FCLFKFDCSLSWPQVYRYRL	1.09 ± 0.36
FCLSMVVDWVGR	-0.342 ± 0.31
FCMVDYWVLVPCDEIGTDVV	0.116 ± 0.46
FCMWKGAFDRDYVGNGVAGS	inactive
FCNTLCAFW	1.91 ± 0.22
FCNVQIFFAVITHPFYSTLL	1.48 ± 0.24
FCSLGKFGSRKCF	1.07 ± 0.61
FCSYLFMLATTLHQAWFHF	1.1 ± 0.72
FCVSTRRWGRAEYKRMDLLW	0.077 ± 1
FCVWIGKEGD	0.442 ± 0.51
FCYIDMEFSFCLLSAEFISV	0.03 ± 0.53
FDCVMLISHHCVILCCFSDM	0.205 ± 1.1
FDECGAGLLPTG	-0.198 ± 0.41
FDGKLW	-0.53 ± 0.61

Substance	amyloid nucleation score
FDIDDIICIM	-1.89 ± 1.4
FDIMNDIK	0.658 ± 0.52
FDKGVSIRPSAWRDPRVWPS	0.417 ± 0.47
FDRHPGTYCDVKLLCREHSA	inactive
FDSRRGEGALMSNDSSCERG	-0.185 ± 0.69
FDVMKFYIYLGYSVVPVM	-1.09 ± 0.43
FDYLCSGGMSTILSCITFPL	-0.37 ± 0.9
FEAFFNGHSSREYLVISVRL	0.153 ± 1.2
FEFIVMEIAC	-0.189 ± 0.35
FEIMQPNAHISCHYCYLVNM	5.01 ± 0.059
FEQCPIFRRGRLLRSNAVCA	-0.145 ± 0.33
FEYNRYRLLYTTYLGPVGGI	-1.56 ± 0.64
FEYVIPRVTKIVRSTDRRGS	-0.548 ± 1.7
FFCEIVMYGWSIM	2.97 ± 0.14
FFHNTSHASYIK	1.09 ± 0.13
FFIETVYATKNYKHW	2.76 ± 0.11
FFIGFIL	1.59 ± 0.21
FFLILRVRLYCTSICQAYAN	0.451 ± 0.48
FFNCFLLDNNYVSLYLWSKD	6.832 ± 0.068
FFWEY	-0.312 ± 1.5
FGAVVADGMKLFSVSFS	-0.711 ± 0.52
FGFFWV	0.099 ± 0.7
FGFMKKRRDLSY	2.96 ± 0.091
FGFSKWSSMLIRHQPYDLFI	-1.1 ± 1
FGHKKPVGLTGLNGFSGTGV	1.91 ± 0.63

Substance	amyloid nucleation score
FGINVVRGKCRVRSLKDIDS	-0.086 ± 0.48
FGLADITWKLPPQGSTWRLT	-0.108 ± 0.95
FGLIATTETRAVSKMNVFDN	1.56 ± 0.49
FGLIGTPCERMVSGLEV	-0.806 ± 0.88
FGLIVQTIMFRWHQKGSNFE	-1.05 ± 2.7
FGLQWSSKAACVLTCKQSLR	inactive
FGLVAGRR	-0.188 ± 1.2
FGLYFRKISGLSPN	-0.211 ± 0.67
FGPCMRFDCCNRGST	4.72 ± 0.082
FGYSAGHERMVHCVGLRSSG	1.37 ± 0.69
FGYYFVNGIFLYSSVRYDNM	3.63 ± 0.076
FHASATRTFIVFCIC	0.556 ± 0.38
FHFKFSSLLIVSFVLGFCLV	0.027 ± 1.7
FHHCFIQTSSDAVSSGLDFE	0.644 ± 0.78
FHHTKSGS	1.67 ± 0.57
FHIRWE	inactive
FHVSDV	-0.125 ± 0.98
FIFSAVGRNN	-0.411 ± 0.57
FIHAMAMCILGEHSI	0.686 ± 0.47
FIHSRE	0.366 ± 0.31
FIHVVAFWRLSRDSY	0.467 ± 0.55
FIIITYFGLGKTVYARRKCC	-1.92 ± 2.7
FILSEFSNRF	0.104 ± 0.34
FINVAFGCVYVRTNCLRMEG	7.116 ± 0.059
FIQNGV	0.659 ± 0.79
